Experimental data as given in patent US7169567 (GENERAL HOSPITAL, dated 2007).
Where no end group is shown, it is not given here.

What was measured:
Test in all cases: cell-based or functional assay
[1] = molecular target: intact rat PTH-1 receptor with HA epitope tag (rWT-HA) (rat, UniProt P25961 23-92; P25961 27-591)
human PTH-1 receptor = molecular target: T1, human PTH-1 receptor (human, UniProt Q03431 27-593)
T1 sequence (looked up): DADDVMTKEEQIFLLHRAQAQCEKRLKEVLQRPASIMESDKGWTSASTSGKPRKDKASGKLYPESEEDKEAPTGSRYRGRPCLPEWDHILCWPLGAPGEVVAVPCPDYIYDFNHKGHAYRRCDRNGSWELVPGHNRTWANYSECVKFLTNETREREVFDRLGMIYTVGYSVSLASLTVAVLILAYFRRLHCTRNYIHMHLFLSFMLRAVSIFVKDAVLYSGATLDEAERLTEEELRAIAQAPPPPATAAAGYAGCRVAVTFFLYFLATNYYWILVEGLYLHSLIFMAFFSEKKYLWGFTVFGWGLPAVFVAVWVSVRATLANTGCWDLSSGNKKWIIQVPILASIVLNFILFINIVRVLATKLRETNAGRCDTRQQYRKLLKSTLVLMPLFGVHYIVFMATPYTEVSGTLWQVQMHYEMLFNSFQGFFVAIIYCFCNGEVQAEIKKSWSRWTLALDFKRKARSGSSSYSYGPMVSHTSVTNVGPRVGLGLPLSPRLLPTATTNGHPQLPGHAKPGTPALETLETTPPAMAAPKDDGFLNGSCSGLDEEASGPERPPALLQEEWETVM

[2] = molecular target: T2, truncated rat PTH-1 receptor rΔNt (rat, UniProt P25961 182-591)
T2 sequence: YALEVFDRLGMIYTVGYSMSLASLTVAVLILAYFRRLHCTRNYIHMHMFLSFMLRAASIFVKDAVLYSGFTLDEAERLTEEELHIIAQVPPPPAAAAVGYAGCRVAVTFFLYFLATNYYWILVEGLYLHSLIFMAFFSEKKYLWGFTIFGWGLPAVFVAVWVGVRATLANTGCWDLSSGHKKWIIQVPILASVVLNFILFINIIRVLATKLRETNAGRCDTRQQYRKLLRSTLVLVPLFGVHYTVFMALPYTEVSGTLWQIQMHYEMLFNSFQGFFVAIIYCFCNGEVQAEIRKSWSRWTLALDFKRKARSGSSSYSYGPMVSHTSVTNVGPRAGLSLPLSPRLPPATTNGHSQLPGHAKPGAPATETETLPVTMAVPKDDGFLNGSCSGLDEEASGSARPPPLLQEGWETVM

Sequence of intact rat PTH-1 receptor with HA epitope tag (rWT-HA) (P25961 whole entry, one chain of several): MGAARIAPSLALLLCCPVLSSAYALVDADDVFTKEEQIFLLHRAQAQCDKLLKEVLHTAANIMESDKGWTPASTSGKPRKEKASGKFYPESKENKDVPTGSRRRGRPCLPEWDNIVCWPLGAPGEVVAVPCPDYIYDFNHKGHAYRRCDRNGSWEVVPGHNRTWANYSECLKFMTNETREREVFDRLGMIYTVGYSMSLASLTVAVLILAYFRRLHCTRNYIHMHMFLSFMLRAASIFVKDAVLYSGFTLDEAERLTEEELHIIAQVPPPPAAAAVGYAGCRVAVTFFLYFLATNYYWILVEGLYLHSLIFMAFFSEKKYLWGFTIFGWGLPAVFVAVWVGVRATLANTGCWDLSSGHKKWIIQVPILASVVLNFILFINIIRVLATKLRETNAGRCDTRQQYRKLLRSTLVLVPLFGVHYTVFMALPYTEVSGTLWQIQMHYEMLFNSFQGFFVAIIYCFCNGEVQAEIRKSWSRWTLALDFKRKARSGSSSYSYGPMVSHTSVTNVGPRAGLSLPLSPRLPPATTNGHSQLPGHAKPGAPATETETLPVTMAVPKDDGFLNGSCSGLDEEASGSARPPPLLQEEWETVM

## AVSEIQLMHNLGKH-NH2 (peptide, UniProt P04089 32-45, looked up) [rat PTH(1-14)]
[1]
  cAMP formation: 15 fold
Human PTH-1 receptor
  cAMP formation over the basal level: ~20 fold
  cAMP potency relative to PTH(1-34): ~5 orders of magnitude
[2]
  cAMP potency relative to PTH(1-34): 2 orders of magnitude
